From patent publication US20150139900A1 (BIOARCTIC NEUROSCIENCE, published 2015)

Key:
[1] = target: T1, HNE-stabilized human α-synuclein protofibrils (human, UniProt P37840 1-140); assay: competition ELISA, antigen in solution against plate coated with protofibrils
Description: (§1) Specifically, a high-binding ELISA microtiter plate was coated with 100 μl/well of 1 μg/ml of α-synuclein protofibril, diluted in 1×PBS, sealed with adhesive sealer and incubated overnight at +4° C. Then, the coating solution was discarded and the residual binding capacity of the plate was blocked by adding 200 μl/well of PBS-Tween 20 (0.05%). The sealed plate was incubated for 60 min at room temperature (R.T.) by shaking at 900 rpm.
(§2) Meanwhile, peptide solution was prepared in 1×PBS-Tween 20 (0.05%) by diluting α-synuclein monomers or protofibril to a concentration of 140 nM. A 10-step 3× dilution series of α-synuclein monomers and protofibrils was performed in a volume of 50 μl in a round bottomed, low protein binding microtiter plate. To this solution, 50 μl of the tested antibody diluted in PBS-Tween 20 (0.05%) to a concentration of 100 ng/ml was added and allowed to interact for 60 min at R.T. by shaking at 900 rpm. Sub sequentially, these pre-incubated samples were added to the washed (3× wash) coated high-binding plate and allowed to incubate for 15 min at R.T. without shaking. The ELISA plate was then washed to remove unbound antibodies.
(§3) Finally, the ELISA plate was washed to remove unbound antibodies and 100 μl of ALP-substrate were added to each well. The plate was kept dark during incubation at R.T. until a yellow color developed. Absorbance values were measured on continuous mode at a wavelength of 405 nm every 15 minutes up to 120 minutes.

α-synuclein monomers = α-synuclein monomers (human, UniProt P37840 1-140); assay: as above
Description: as §1, §2, §3

[2] = target: ONE-stabilized human α-synuclein protofibrils (human, UniProt P37840 1-140); assay: competition ELISA
[3] = target: T1, HNE-stabilized human α-synuclein …; assay: competition ELISA

Measured: binding result

B1: mAb49/G (antibody, V domains shown)
VH: EVQLVETGGGLVQPKGSLKLSCATSGFTFNTYAMNWVRQAPGKGLEWVARIRTKSNDYATYYADSVKGRITISRDDSQSMLYLQMNNLKTEDTAMYYCVRVGYRPYAMDYWGQGTSVTVSS
VL: DVLMTQTPLSLPVSLGDQASISCRSSQNIVHSNGNTYLEWYLQKPGQSPTLLIYKVSNRFSGVPDRFSGSGSGTDFTLKISRVEAEDLGVYYCFQGSHVPLTFGAGTKLELK
notes: Mouse monoclonal antibody from hybridoma, detected with anti-mouse IgG; constant regions are not; also called BA1
binds: [1] | α-synuclein monomers | [2]

B2: mAb38F11/2-8 (antibody, V domains shown)
VH: EVMLVESGGGLVKPGGSLKLSCAASGFTFSSYAMSWVRQTPEKRLEWVATISNGGSYTYYPDSVKGRFTISRDNAKNTLYLQMSSLRSEDTAMYYCARHSDYSGAWFAYWGQGTLVTVSA
VL: QIVLTQSPAIMSASPGEKVTISCSASSSVSYMYWYQQKPGSSPKPWIYRTSNLASGVPARFSGSGSGTSYSLTISSMEAEDAATYYCQQYHSYPYTFGGGTKLEIK
notes: Mouse monoclonal antibody from hybridoma; also called BA3
binds: α-synuclein monomers | [3] | [2]

B3: mAb48B11/8 (antibody, V domains shown)
VH: EVQLQESGPSLVKPSQTLSLTCSVTGDSFTSGYWNWIRKFPGNKLEYMGYIRYSGNTYYNPSLKSRISITRDTSKNQYYLQLISVTTEDTATFYCARSYYDYDRAWFAYWGQGALVTVSA
VL: DVVMTQTPLSLPVSLGDQASISCRSSQSLVHSNGNTYLHWYLQKPGQSPKLLIYKVSNRFSGVPDRFSGSGSGTDFTLKISRVEAEDLGVYFCSQSTHVPWTFGGGTKLEIK
notes: Mouse monoclonal antibody from hybridoma; also called BA4
binds: α-synuclein monomers | [3] | [2]
